According to PMC3894216 (PLoS Pathogens, 2014):

Molecular target: the molecule itself
Assay: SDS-stable oligomer band of the purified protein

B1: GST-CNF1 N-terminal fragment (aa 1-342) (domain or fragment)
chain: MGNQWQQKYLLEYNELVSNFPSPERVVSDYIKNCFKTDLPWFSRIDPDNAYFICFSQNRSNSRSYTGWDHLGKYKTEVLTLTQAALINIGYRFDVFDDANSSTGIYKTKSADVFNEENEEKMLPSEYLHFLQKCDFAGVYGKTLSDYWSKYYDKFKLLLKNYYISSALYLYKNGELDEREYNFSMNALNRSDNISLLFFDIYGYYASDIFVAKNNDKVMLFIPGAKKPFLFKKNIADLRLTLKELIKDSDKQQLLSQHFSLYSRQDGVSYAGVNSVLHAIENDGNFNESYFLYSNKTLSNKDVFDAIAISVKKRSFSDGDIVIKSNSEAQRDYALTILQTIL
stoichiometry N: 4
